Measurements: patent US20140295512A1, “Ketol-Acid Reductoisomerases With Improved Performance Properties” (CALIFORNIA INSTITUTE OF TECHNOLOGY, priority 2011, published 2014)
“And” between values parts separate entries of the source, which are not always exact repeats. Identical values can stand only once. Like-named read-outs stand apart in the source and are kept apart here.

What was measured:
Format in all cases: biochemical
[1] = KARI assay of purified S. exigua KARI and variants with NADPH (Examples 6-9); conditions: for U/mg NADPH (specific activity): cofactor NADPH
Outline: (§1)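 Kinetic read of NAD(P)H consumption at 340 nm in 100 mM potassium phosphate pH 7.0 with 1 mM DTT, 2.5 mM (S)-2-acetolactate and 10 mM MgCl2, cofactor 200 μM final. For Michaelis–Menten constants, NADPH was varied 200–12 μM and NADH 200–6 μM.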

[2] = KARI assay in 1-mL scale to measure NADPH KM value (Example 5); conditions: for Km: Example 5, pH 7.0
Procedure: (§2) KARI activity was assayed kinetically by monitoring the decrease in NADPH or NADH concentration by measuring the change in absorbance at 340 nm. An assay buffer was prepared containing 100 mM potassium phosphate pH 7.0, 1 mM DTT, 2.5 mM (S)-2-acetolactate, and 10 mM MgCl2 (final concentrations in the 1-mL assay). Twenty μL purified enzyme and 960 μL of the assay buffer were placed into a 1-mL cuvette. The reaction was initiated by addition of 20 μL NADPH or NADH (200 μM final concentration) for a general activity assay. Michaelis-Menten constants for the cofactors were determined with varying concentrations of NADPH or NADH (200-12 μM final).

[3] = KARI assay in 1-mL scale to measure NADH KM value (Example 5); conditions: for Km: Example 5, pH 7.0
Procedure: as §2

[4] = KARI assay in 100-μL scale to measure MgCl2 KM value; conditions: for Km: NADPH, pH 7.0, read-out: KM Mg^2+
Procedure: An assay buffer was prepared containing 100 mM potassium phosphate pH 7.0, 1 mM DTT, 2.5 mM (S)-2-acetolactate, and 200 μM NADPH (final concentrations). Five μL purified enzyme and 5 μL of varying concentrations of MgCl2 were placed into a flat-bottom assay plate (Evergreen Scientific). The reactions were initiated by addition of 90 μL assay buffer. The change in absorbance at 340 nm was monitored over 1 min in a plate reader (TECAN).

[5] = KARI assay of purified S. exigua KARI and variants with NADH (Examples 6-9)
Outline: as §1

B1: Se1_KARI: Slackia exigua (ATCC 700122) ketol-acid reductoisomerase, wild type, SEQ ID NO: 2 (protein, listed as Slackia exigua)
chain: MSVKTKEKEMAVTILYEQDVDPKVIQGLKVGIIGYGSQGHAHALNLMDSGVDVRVGLREGSSSWKTAEEAGLKVTDMDTAAEEADVIMVLVPDEIQPKVYQEHIAAHLKAGNTLAFAHGFNIHYGYIVPPEDVNVIMCAPKGPGHIVRRQFTEGSGVPDLACVQQDATGNAWDIVLSYCWGVGGARSGIIKATFAEETEEDLFGEQAVLCGGLVELVKAGFETLTEAGYPPELAYFECYHEMKMIVDLMYESGIHFMNYSISNTAEYGEYYAGPKVINEQSREAMKEILKRIQDGSFAQEFVDDCNNGHKRLLEQREAINTHPIETTGAQIRSMFSWIKKED
In the case of B1, the “kcat NADPH” value [1] is reported as 0.80 s⁻¹, the “U/mg NADPH (specific activity)” value [1] is reported as 0.32 ± 0.03 U/mg and the “U/mg NADPH (specific activity)” value ([1]; listed as Se1_KARI (wt)) is reported as 0.32 U/mg. For the same molecule, the “U/mg NADPH (specific activity)” value ([1]; listed as Se1_KARI^his6) was 0.32 U/mg and 0.32 ± 0.03 U/mg, the “kcat NADPH” value ([1]; listed as Se1_KARI (wt)) was 0.80 s⁻¹ and the “kcat NADPH” value ([1]; listed as Se1_KARI^his6) was 0.8 s⁻¹. The Km ([1]; read-out: Km for cofactor NADPH) was under 1 µM, the Km [2] was under 1 µM and the “kcat with NADH” value ([3]; Example 5) was 0.4 s⁻¹. The Km [3] was 45 ± 10 µM, the Km [4] was 700 µM and the “kcat NADH” value [5] was 0.40 s⁻¹. For the same molecule, the “U/mg NADH (specific activity)” value ([5]; cofactor NADH) was 0.15 U/mg, the “kcat NADH” value ([5]; listed as Se1_KARI (wt)) was 0.40 s⁻¹ and the “kcat/Km ratio NADH/NADPH (cofactor specificity)” value ([5]; listed as Se1_KARI (wt)) was 0.08. The “kcat NADH” value ([5]; listed as Se1_KARI^his6) was 0.4 s⁻¹, the “kcat/Km ratio NADH/NADPH (cofactor specificity)” value ([5]; listed as Se1_KARI^his6) was 0.08 and the Km ([5]; read-out: Km for cofactor NADH) was 45 µM. For the same molecule, the “Ratio NADH/NADPH (U/mg)” value ([5]; specific activity ratio) was 0.47.

B2: E. coli IlvC: Escherichia coli ketol-acid reductoisomerase (ilvC), wild type (protein, UniProt P05793 2-491, looked up)
Ketol-acid reductoisomerase …: ANYFNTLNLRQQLAQLGKCRFMGRDEFADGASYLQGKKVVIVGCGAQGLNQGLNMRDSGLDISYALRKEAIAEKRASWRKATENGFKVGTYEELIPQADLVINLTPDKQHSDVVRTVQPLMKDGAALGYSHGFNIVEVGEQIRKDITVVMVAPKCPGTEVREEYKRGFGVPTLIAVHPENDPKGEGMAIAKAWAAATGGHRAGVLESSFVAEVKSDLMGEQTILCGMLQAGSLLCFDKLVEEGTDPAYAEKLIQFGWETITEALKQGGITLMMDRLSNPAKLRAYALSEQLKEIMAPLFQKHMDDIISGEFSSGMMADWANDDKKLLTWREETGKTAFETAPQYEGKIGEQEYFDKGVLMIAMVKAGVELAFETMVDSGIIEESAYYESLHELPLIANTIARKRLYEMNVVISDTAEYGNYLFSYACVPLLKPFMAELQPGDLGKAIPEGAVDNGQLRDVNEAIRSHAIEQVGKKLRGYMTDMKRIAVAG
In the case of B2, the “NADPH KM, times higher than NADPH KM for S. exigua KARI” value [2] is reported as about 20 fold, the Km [2] is reported as 20 ± 3 µM and the “NADH KM, times higher than NADH KM for S. exigua KARI” value [3] is reported as 22 fold. For the same molecule, the Km [3] was 1000 µM, the Km ([3]; listed as E. coli KARI) was about 1000 µM and the “KM for Mg^2+, times higher than KM of S. exigua KARI” value [4] was 2.9 fold. For the same molecule, the Km [4] was 2000 ± 500 µM.
